The source of these data is patent US20250277030A1, “ANTI-NAPI2B ANTIBODIES AND METHODS OF USE” (Zymeworks BC Inc., priority 2022, published 2025).

The nature of series [1]: Thermal stability by differential scanning calorimetry (DSC). The series is classed as physicochemical. Conditions: 0.4 mg/mL in PBS, scan 20° C. to 100° C. at 60° C./hr. The method, then:
The thermal stability of the humanized antibody variants was assessed by differential scanning calorimetry (DSC) as described below.
400 μL of purified samples primarily at concentrations of 0.4 mg/mL in PBS were used for DSC analysis with a VP-Capillary DSC (Malvern Panalytical Inc., Westborough, MA). At the start of each DSC run, 5 buffer blank injections were performed to stabilize the baseline, and a buffer injection was placed before each sample injection for referencing. Each sample was scanned from 20° C. to 100° C. at a 60° C./hr rate, with low feedback, 8 sec filter, 3 min pre-scan thermostat, and 70 psi nitrogen pressure. The resulting thermograms were referenced and analyzed using Origin 7 software (OriginLab Corporation, Northampton, MA) to determine melting temperature (Tm) as an indicator of thermal stability.
A general note: DSC measures the heat that a sample takes up or gives off during a temperature scan.

Series [2] in a line: Capillary isoelectric focusing (cIEF). The class given is physicochemical. Conditions: main isoform; 0.5 mg/mL. On the procedure: (§1) The isoelectric point was measured by capillary isoelectric focusing (cIEF), the propensity for self-aggregation was measured by Affinity-capture self-interaction nanoparticle spectroscopy (AC-SINS) and non-specific binding was measured by NS-ELISA, as described below.
cIEF was carried out using Maurice C. (ProteinSimple®) system, System Suitability Kit and Method Development Kit. System suitability standard, fluorescence calibration standard, cartridge and samples were prepared according to vendor's recommendations. The capillary was automatically calibrated with a fluorescence standard preconditioned with Maurice cIEF System Suitability Kit to ensure the capillary was functioning properly. The antibody samples were diluted to a concentration of 0.5 mg/mL in a final volume of 40 μL in Gibco™ Distilled Water, and mixed Maurice cIEF Method Development Kit Samples. The samples were then vortexed, centrifuged and the supernatant pipetted into individual wells of a 96-well plate. All electropherograms were detected with UV absorbance at 280 nm. All data analyses were performed using vendor software Compass for iCE (ProteinSimple®).

For the next series, the system named is ssDNA. The series is described as follows: NS-ELISA non-specific binding, ssDNA. The note with it: mAb at 100 nM. The method, then:
as §1
(§2) NS-ELISA was used to measure the propensity of the antibodies to bind to a range of biomolecules to emulate the undesirable non-specific interactions to biological matrices in vivo as described below.
(§3) NS-ELISA was carried out in Corning®96-well EIA/RIA Easy Wash™ Clear Flat Bottom Polystyrene High Bind Microplate coated overnight at 4° C. with 50 μL of Heparin (Sigma, H3149) diluted with 50 mM sodium carbonate pH 9.6 to a final concentration of 250 μg/mL. The plate was incubated for 2 days at room temperature, wells that were coated with heparin were not covered to allow air dry. […] Reactions were stopped after approximately 10 minutes by adding 100 μL of 1 M HCl to each well, and absorbance was read at 450 nm. Binding scores were calculated as the ratio of the ELISA signal of the antibody (antibody-treated) to the signal of a well containing buffer instead of the primary antibody (untreated). The cutoffs considered for each binding molecule (ssDNA, KLH, insulin, dsDNA and heparin) were internally calculated, based on the average of Zymeworks Inc. produced antibodies and antibodies benchmarks published in the literature.

The target in a further series is T1, Insulin (Homo sapiens, UniProt P01308).
T1 construct: purchased Sigma-Aldrich 19278
T1 sequence (P01308 25-54 limits assumed): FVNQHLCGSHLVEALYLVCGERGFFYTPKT
T1 sequence (P01308 90-110 limits assumed): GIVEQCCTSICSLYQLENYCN
Briefly: NS-ELISA non-specific binding, insulin. Conditions: mAb at 100 nM. On the procedure: as §1, §2, §3
On the technique in general: An ELISA detects its analyte on a solid surface through an enzyme-linked reagent.

Another series has as its system dsDNA. Briefly: NS-ELISA non-specific binding, dsDNA. Conditions: mAb at 100 nM. The method, then:
as §1, §2, §3

A short description of series [3]: NS-ELISA non-specific binding, heparin. The note with it: mAb at 100 nM. On the procedure: as §1, §2, §3
The target of series [4] is T2, NaPi2b expressed on IGROV-1 cells (Homo sapiens, UniProt O95436).
T2 construct: IGROV-1 cells express endogenous NaPi2b at a high level; endogenous in cells; host or cells: IGROV-1
T2 sequence (O95436 1-690): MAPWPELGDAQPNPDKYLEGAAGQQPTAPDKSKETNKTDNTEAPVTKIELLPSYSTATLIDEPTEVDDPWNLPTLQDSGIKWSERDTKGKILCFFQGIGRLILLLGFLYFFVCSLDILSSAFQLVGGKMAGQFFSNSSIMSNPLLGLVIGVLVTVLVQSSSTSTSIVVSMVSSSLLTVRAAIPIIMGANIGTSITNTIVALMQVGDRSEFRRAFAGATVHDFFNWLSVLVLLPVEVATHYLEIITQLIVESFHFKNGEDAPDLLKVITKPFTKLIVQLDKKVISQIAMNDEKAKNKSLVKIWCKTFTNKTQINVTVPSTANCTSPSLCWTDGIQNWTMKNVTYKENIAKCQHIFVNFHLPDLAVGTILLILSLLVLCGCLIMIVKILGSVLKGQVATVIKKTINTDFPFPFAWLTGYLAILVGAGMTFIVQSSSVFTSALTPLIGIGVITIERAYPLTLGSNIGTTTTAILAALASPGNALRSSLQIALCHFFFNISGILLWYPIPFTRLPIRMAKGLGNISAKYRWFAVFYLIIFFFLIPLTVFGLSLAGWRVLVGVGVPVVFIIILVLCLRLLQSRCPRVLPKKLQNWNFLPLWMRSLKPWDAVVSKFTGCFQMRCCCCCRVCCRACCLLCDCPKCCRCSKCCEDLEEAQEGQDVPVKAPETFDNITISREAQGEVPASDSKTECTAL
Briefly: Cellular binding of bivalent antibodies to IGROV-1 cells by flow cytometry (Example 13). The note with it: IGROV-1, 24 hours at 4° C., NB = no cellular binding. On the procedure: IGROV-1 cells express endogenous NaPi2b at a high level.
Briefly, cells were seeded at 50,000 cells/well in conical-bottom 96-well plates and treated with test antibody for 24 hours at 4° C. to prevent internalization. Palivizumab (anti-RSV antibody, v22277) was included as a negative control. […] Following incubation, cells were washed and stained with anti-Human IgG Fc AF647 conjugate (Jackson Immuno Research Labs, West Grove, PA; Cat. No. 109-605-098) at 4° C. for 30 min. Following incubation and washing, fluorescence was detected by flow cytometry on a BD LSRFortessa™ Cell Analyzer (BD Biosciences, Franklin Lake, NJ) with 1,000 minimum events collected per well. The AF647/APC-A GeoMean (fluorescence signal geometric mean, proportional to anti-Human AF647 binding) was calculated for the live cell population using FlowJo™ Version 10.8.1 (BD Biosciences, Franklin Lake, NJ) and plotted for each test antibody using GraphPad Prism Version 9 (GraphPad Software, San Diego, CA).
On the technique in general: In flow cytometry, cells or beads pass a laser one at a time.

The next series deals with OVCAR-3 cells. Briefly: In vitro cytotoxicity, 2D monolayer, CellTiter-Glo, OVCAR-3. The class given is cell-based, human. The note with it: OVCAR-3, 4 days; IC = Incomplete Curve. On the procedure:
(§4) The cytotoxicity as measured by cell growth inhibition of the humanized variant v29456 (H1L2) conjugated to various drug-linkers were assessed in a panel of NaPi2b-expressing cell lines as described below. Cell lines used were OVCAR-3 (ovarian carcinoma), IGROV-1 (ovarian carcinoma), and HCC-78 (lung carcinoma). ADCs with antibody palivizumab (anti-RSV) (v22277) were used as non-targeted controls.
(§5) OVCAR-3 were cultured in RPMI 1640 Medium, ATCC modification (Thermo Fisher Scientific, Waltham, MA) supplemented with 20% fetal bovine serum (FBS) (Thermo Fisher Scientific, Waltham, MA) and 0.01 μg/mL human insulin (Sigma-Aldrich, Oakville, ON). […] After incubation, CellTiter-Glo® reagent (Promega Corporation, Madison, WI) was added in all wells and luminescence corresponding to ATP present in each well was measured using a Synergy™H1 plate reader (BioTek Instruments, Winooski, VT). Percent cytotoxicity values were calculated by the following formula: (1−(Luminescence of Treated Cells/Average Luminescence of Untreated Cells))×100, and plotted against test article concentration using GraphPad Prism 9 software (GraphPad Software, San Diego, CA). EC50 values were calculated based on a non-linear regression log(agonist) versus response, variable slope (four parameters) by GraphPad Prism 9.

The next series concerns IGROV-1 cells. Briefly: In vitro cytotoxicity, 2D monolayer, CellTiter-Glo, IGROV-1. Conditions: IGROV-1, 4 days. The series is classed as cell-based, human. The method, then:
as §4, §5

The test system of a further series is HCC-78 cells. The series is described as follows: In vitro cytotoxicity, 2D monolayer, CellTiter-Glo, HCC-78. The series is classed as cell-based, human. Conditions: HCC-78, 4 days. On the procedure: as §4, §5

B1: v29452: humanized anti-NaPi2b IgG1/kappa antibody H1L3; VH SEQ ID NO:24, VL SEQ ID NO:30 (antibody, V domains shown)
VH: QVQLVQSGAEVKKPGASVKVSCKASGFTFTSYNVHWVRQAPGQGLEWMGAISPGNGDLSYAQKFQGRVTMTRDTSTSTVYMELSSLRSEDTAVYYCARGRTGMGAVDYWGQGTLVTVSS
VL: DVQMTQSPSSLSASVGDRVTITCRASQDVYSYLNWYQQKPGKAVKLLIYYTSRLQSGVPSRFSGSGSGTDYTLTISSLQPEDIATYYCQQYNIFPWTFGQGTKLEIK
modifications: v29452, v29456, v29460 VH (H1); v29449, v29450, v29451, v29452 VL (L3)
For B1, the “Fab Tm” value in [1] was found to be 79.5 °C. For the same molecule, the “cIEF pI” value in series [2] was 8.53. The “NS-ELISA binding score (ratio of signal between antibody-treated and untreated), ssDNA” value with ssDNA is given as 1.22. Further, the “NS-ELISA binding score (ratio of signal between antibody-treated and untreated), Insulin” value with Insulin amounted to 1.03. In the series with dsDNA, the “NS-ELISA binding score (ratio of signal between antibody-treated and untreated), dsDNA” value was 1.0. The “NS-ELISA binding score (ratio of signal between antibody-treated and untreated), Heparin” value in [3] is given as 1.05. Also, in [4], the “Bmax (MFI)” value is listed as 47,763 MFI and the “Curve Hill Slope (h)” value came out at 0.9.

B2: v18993-DL2 (conjugate, chains of the INN, looked up)
VH: EVQLVESGGGLVQPGGSLRLSCAASGFSFSDFAMSWVRQAPGKGLEWVATIGRVAFHTYYPDSMKGRFTISRDNSKNTLYLQMNSLRAEDTAVYYCARHRGFDVGHFDFWGQGTLVTVSS
VL: DIQMTQSPSSLSASVGDRVTITCRSSETLVHSSGNTYLEWYQQKPGKAPKLLIYRVSNRFSGVPSRFSGSGSGTDFTLTISSLQPEDFATYYCFQGSFNPLTFGQGTKVEIK
modifications: drug-linker DL2
The EC50 is the concentration that produces a half-maximal response. For the molecule B2, the “Bmax (MFI)” value in series [4] is given as 39,758 MFI. In series [4], the “Curve Hill Slope (h)” value was determined as 1.1. The Kd in series [4] (apparent Kd) came to 3 nM. The EC50 with OVCAR-3 cells is 0.49 nM; in the series on IGROV-1 cells, 2.12 nM; with HCC-78 cells, 1.77 nM.

B3: v18993-DL1 (conjugate, chains of the INN, looked up)
VH: EVQLVESGGGLVQPGGSLRLSCAASGFSFSDFAMSWVRQAPGKGLEWVATIGRVAFHTYYPDSMKGRFTISRDNSKNTLYLQMNSLRAEDTAVYYCARHRGFDVGHFDFWGQGTLVTVSS
VL: DIQMTQSPSSLSASVGDRVTITCRSSETLVHSSGNTYLEWYQQKPGKAPKLLIYRVSNRFSGVPSRFSGSGSGTDFTLTISSLQPEDFATYYCFQGSFNPLTFGQGTKVEIK
modifications: drug-linker DL1
For B3, the EC50 in the series on IGROV-1 cells came out at 3.45 nM; with HCC-78 cells, 5.45 nM.
